In PMC5217639, “Structural prediction of the interaction of the tumor suppressor p27^KIP1 with cyclin A/CDK2 identifies a novel catalytically relevant determinant” (BMC Bioinformatics, 2017):

Key:
cyclin A/CDK2 = biological target: T1, cyclin A/CDK2 (Homo sapiens, UniProt P24941); test: In vitro kinase assay of cyclin A/CDK2 on biotinylated p27KIP1 substrate peptides (Michaelis-Menten kinetics); type: biochemical; settings: for Relative rate (maximal relative rate of phosphoryl transfer) / Km: 50 μM ATP and 1 μCi 32P-γ-ATP, 10 min, 30°C, 50 mM Tris-HCl pH 7.5, 10 mM MgCl2, SAM2 membrane, scintillation counting, Michaelis-Menten fit (GraphPad Prism), Fig. 5: mean values ± SD of 5 experiments performed in duplicates; for Km: peptide substrate
T1 construct: made in house; host or cells: Sf9 insect cells (Spodoptera frugiperda), baculovirus co-infection
Experimental: Fig. 5 Analysis of cyclin A/CDK2 kinase activity on p27^KIP1 substrate peptides. Cyclin A/CDK2 Kinase purified from Sf9 cells was incubated with increasing concentrations of p27^KIP1 wild type and the R194A mutant peptide as indicated. Phosphorylation of the peptides was monitored after immobilisation on SAM2 membrane by scintillation counting and analysis by GraphPad Prism software. Shown are mean values ± SD of 5 experiments performed in duplicates
Human cyclin A/CDK2 complexes were expressed in SF9 insect cells (Spodoptera frugiperda) upon infection with recombinant baculo viruses encoding either cyclin A or CDK2. The complex was purified using the GST tag of cyclin A [49]. In vitro kinase assays of cyclin A/CDK2 were performed in kinase buffer (50 mM Tris-HCl, pH 7.5, 10 mM MgCl2, 1 mM EGTA, 1 mM DTT, 40 mM α-glycero-phosphate, 20 mM p-nitrophenylphosphate, 0.1 mM sodium vanadate, 0.01% BriJ 35) containing 50 μM ATP and 1 μCi ^32P-γ-ATP for 10 min at 30°C in the presence of increasing amount of biotinylated p27^KIP1 wild type or R194A (an arginine to alanine substitution at position 194) peptides as substrates. The assays were terminated by adding 12.5 μl 7.5 M guanidine hydrochloride. The peptides were immobilized on SAM2 Biotin Capture Membranes (Promega), extensively washed as described in the manufacturer’s protocol, and then monitored for radioactivity in a liquid scintillation counter to calculate the specific kinase activity. Kinetic parameters were determined with GraphPad Prism software built-in “Enzyme kinetic Michaelis-Menten”. The sequence of the p27^KIP1 wild type peptide corresponds to amino acids 180 to 194. The peptides were synthesized with a biotin-PEG-20-linker and purified by HPLC at the Peptide Specialty Laboratories, Heidelberg (Germany).

[1] = biological target: Human cyclin A/CDK2 complex (human) (UniProt P20248)

| Substance | Relative rate (maximal relative rate of phosphoryl transfer) (cyclin A/CDK2) [pmol/min] | Km (cyclin A/CDK2) [µM] | turnover rate of the wt peptide relative to the R194A mutant peptide (cyclin A/CDK2; wt versus R194A, in words) | Km of peptide phosphorylation by cyclin A/CDK2, in vitro kinase assay (32P-γ-ATP, 50 μM ATP, 10 min, 30°C) [1] [µM] | Relative rate/Km of peptide phosphorylation by cyclin A/CDK2, in vitro kinase assay [1] | maximal relative rate of phosphoryl transfer by cyclin A/CDK2, in vitro kinase assay [1] [pmol/min] |
| --- | --- | --- | --- | --- | --- | --- |
| N180AGSVEQTPKKPGLA [Peptide R194A, p27KIP1 peptide with an arginine to alanine substitution at position 194] | 1.11 | 81.4 |  |  |  |  |
| N180AGSVEQTPKKPGLR [wt, p27KIP1 wild type peptide corresponding to amino acids 180 to 194] | 2.21 | 93.6 | twice as high |  |  |  |
| p27^KIP1 R194A peptide (amino acids 180 to 194) |  |  |  | 81.4 | 0.0135 | 1.11 |
| p27^KIP1 wild-type peptide (amino acids 180 to 194) |  |  |  | 93.6 | 0.0195 | 2.21 |
